# Reference: the supplement of paper PMC10567573
# B1: KCNA4 (parent)
# chain: YQLGEEALLKFREDEGFVREEEDR
# Variants of: B1
# Experiment: protein stability index of a GFP-peptide fusion (GPS, HEK-293T) (PSI 1-6); higher = more stable
# Details: c terminus: a fixed tail appended
# 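Further: lentivirally expressed fusions sorted by FACS into six bins by GFP to DsRed ratio, PSI derived from sequencing read proportions per bin multiplied by bin number.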
row,Variant,protein stability index
1,YQLGEEALLKFREDEGFEREEEDR [V18E],4.67
2,YQLGEEALLKFREDEGFAREEEDR [V18A],4.16
3,YQLGEEALLKFREDEGFDREEEDR [V18D],4.83
4,YQLGEEALLKFREDEGFCREEEDR [V18C],4.53
5,YQLGEEALLKFRRDEGFVREEEDR [E13R],4.54
6,YQLGEEALLKFRKDEGFVREEEDR [E13K],4
7,YQLGEEALLKFRWDEGFVREEEDR [E13W],2.39
8,YQLGEEALLKFRHDEGFVREEEDR [E13H],3.96
9,YQLGEEALLKFRVDEGFVREEEDR [E13V],3.81
10,YQLGEEALLKFRNDEGFVREEEDR [E13N],4.5
11,YQLGEEALLKFRLDEGFVREEEDR [E13L],4.45
12,YQLGEEALLKFRSDEGFVREEEDR [E13S],3.37
13,YQLGEEALLKFRYDEGFVREEEDR [E13Y],4.02
14,YQLGEEALLKFRPDEGFVREEEDR [E13P],4.22
15,YQLGEEALLKFRQDEGFVREEEDR [E13Q],4.3
16,YQLGEEALLKFRTDEGFVREEEDR [E13T],4.43
17,YQLGEEALLKFRMDEGFVREEEDR [E13M],3.84
18,YQLGEEALLKFRIDEGFVREEEDR [E13I],3.32
19,YQLGEEALLKFREFEGFVREEEDR [D14F],3.78
20,YQLGEEALLKFREMEGFVREEEDR [D14M],4.27
21,YQLGEEALLKFRETEGFVREEEDR [D14T],3.98
22,YQLGEEALLKFRELEGFVREEEDR [D14L],4.08
23,YQLGEEALLKFREYEGFVREEEDR [D14Y],3.59
24,YQLGEEALLKFRENEGFVREEEDR [D14N],3.98

row,Variant,protein stability index
1,YQLGEEALLKFREIEGFVREEEDR [D14I],4
2,YQLGEEALLKFREHEGFVREEEDR [D14H],3.64
3,YQLGEEALLKFREREGFVREEEDR [D14R],3.58
4,YQLGEEALLKFREGEGFVREEEDR [D14G],3.45
5,YQLGEEALLKFREKEGFVREEEDR [D14K],3.45
6,YQLGEEALLKFRECEGFVREEEDR [D14C],4
7,YQLGEEALLKFREAEGFVREEEDR [D14A],3.32
8,YQLGEEALLKFREEEGFVREEEDR [D14E],4.18
9,YQLGEEALLKFREWEGFVREEEDR [D14W],2.81
10,YQLGEEALLKFREVEGFVREEEDR [D14V],3.39
11,YQLGEEALLKFREPEGFVREEEDR [D14P],3.16
12,YQLGEEALLKFREQEGFVREEEDR [D14Q],3.88
13,YQLGEEALLKFRESEGFVREEEDR [D14S],3.56
14,YQLGEEALLKFREDEEFVREEEDR [G16E],4.84
15,YQLGEEALLKFREDEKFVREEEDR [G16K],3.93
16,YQLGEEALLKFREDELFVREEEDR [G16L],4.85
17,YQLGEEALLKFREDETFVREEEDR [G16T],4.58
18,YQLGEEALLKFREDEQFVREEEDR [G16Q],4.73
19,YQLGEEALLKFREDESFVREEEDR [G16S],4.75
20,YQLGEEALLKFREDEWFVREEEDR [G16W],4.12
21,YQLGEEALLKFREDEDFVREEEDR [G16D],5.21
22,YQLGEEALLKFREDEAFVREEEDR [G16A],4.65
23,YQLGEEALLKFREDENFVREEEDR [G16N],4.47
24,YQLGEEALLKFREDEYFVREEEDR [G16Y],4.04

row,Variant,protein stability index
1,YQLGEEALLKFREDERFVREEEDR [G16R],4.08
2,YQLGEEALLKFREDEMFVREEEDR [G16M],4.48
3,YQLGEEALLKFREDEPFVREEEDR [G16P],4.62
4,YQLGEEALLKFREDEHFVREEEDR [G16H],4.8
5,YQLGEEALLKFREDEIFVREEEDR [G16I],4.61
6,YQLGEEALLKFREDEVFVREEEDR [G16V],4.5
7,YQLGEEALLKFREDEFFVREEEDR [G16F],4.31
8,YQLGEEALLKFREDECFVREEEDR [G16C],4.83
9,YQLGEEALLKFREDMGFVREEEDR [E15M],3.96
10,YQLGEEALLKFREDWGFVREEEDR [E15W],3.84
11,YQLGEEALLKFREDRGFVREEEDR [E15R],4.15
12,YQLGEEALLKFREDDGFVREEEDR [E15D],4.15
13,YQLGEEALLKFREDKGFVREEEDR [E15K],4.16
14,YQLGEEALLKFREDNGFVREEEDR [E15N],4.42
15,YQLGEEALLKFREDGGFVREEEDR [E15G],4.42
16,YQLGEEALLKFREDCGFVREEEDR [E15C],3.86
17,YQLGEEALLKFREDVGFVREEEDR [E15V],3.8
18,YQLGEEALLKFREDAGFVREEEDR [E15A],3.83
19,YQLGEEALLKFREDLGFVREEEDR [E15L],3.88
20,YQLGEEALLKFREDYGFVREEEDR [E15Y],4.3
21,YQLGEEALLKFREDQGFVREEEDR [E15Q],4.4
22,YQLGEEALLKFREDPGFVREEEDR [E15P],3.99
23,YQLGEEALLKFREDIGFVREEEDR [E15I],3.83
24,YQLGEEALLKFREDHGFVREEEDR [E15H],3.87

row,Variant,protein stability index
1,YQLGEEALLKFREDSGFVREEEDR [E15S],4.09
2,YQLGEEALLKFREDFGFVREEEDR [E15F],3.83
3,YQLGEEALLKFREDTGFVREEEDR [E15T],3.73
4,YQLGEEALLKFREDEGCVREEEDR [F17C],4.88
5,YQLGEEALLKFREDEGSVREEEDR [F17S],4.56
6,YQLGEEALLKFREDEGMVREEEDR [F17M],3.69
7,YQLGEEALLKFREDEGRVREEEDR [F17R],4.13
8,YQLGEEALLKFREDEGVVREEEDR [F17V],4.53
9,YQLGEEALLKFREDEGQVREEEDR [F17Q],4.5
10,YQLGEEALLKFREDEGTVREEEDR [F17T],4.5
11,YQLGEEALLKFREDEGAVREEEDR [F17A],4.78
12,YQLGEEALLKFREDEGEVREEEDR [F17E],4.79
13,YQLGEEALLKFREDEGYVREEEDR [F17Y],4.86
14,YQLGEEALLKFREDEGNVREEEDR [F17N],4.68
15,YQLGEEALLKFREDEGHVREEEDR [F17H],4.71
16,YQLGEEALLKFREDEGPVREEEDR [F17P],4.9
17,YQLGEEALLKFREDEGGVREEEDR [F17G],4.01
18,YQLGEEALLKFREDEGIVREEEDR [F17I],4.3
19,YQLGEEALLKFREDEGWVREEEDR [F17W],4.59
20,YQLGEEALLKFREDEGLVREEEDR [F17L],4.61
21,YQLGEEALLKFREDEGDVREEEDR [F17D],4.81
22,YQLGEEALLKFREDEGKVREEEDR [F17K],4.51
